Measurements: IntAct's records for PubMed 31515488

B1: Protein FAM9B (Homo sapiens), Q8IZU0 (parent)
chain: MAAWGKKHAGKDPVRDECEERNRFTETREEDVTDEHGEREPFAETDEHTGANTKKPEDTAEDLTAKRKRMKMDKTCSKTKNKSKHALRKKQLKRQKRDYIHSLKLLNVLEEYITDEQKEEEEEEGEEEELIRIFQEQQKKWQQYRSVRRERLKEMKLLRDQFVKALEDFEDLCDRVFSDEDSELDN
partner: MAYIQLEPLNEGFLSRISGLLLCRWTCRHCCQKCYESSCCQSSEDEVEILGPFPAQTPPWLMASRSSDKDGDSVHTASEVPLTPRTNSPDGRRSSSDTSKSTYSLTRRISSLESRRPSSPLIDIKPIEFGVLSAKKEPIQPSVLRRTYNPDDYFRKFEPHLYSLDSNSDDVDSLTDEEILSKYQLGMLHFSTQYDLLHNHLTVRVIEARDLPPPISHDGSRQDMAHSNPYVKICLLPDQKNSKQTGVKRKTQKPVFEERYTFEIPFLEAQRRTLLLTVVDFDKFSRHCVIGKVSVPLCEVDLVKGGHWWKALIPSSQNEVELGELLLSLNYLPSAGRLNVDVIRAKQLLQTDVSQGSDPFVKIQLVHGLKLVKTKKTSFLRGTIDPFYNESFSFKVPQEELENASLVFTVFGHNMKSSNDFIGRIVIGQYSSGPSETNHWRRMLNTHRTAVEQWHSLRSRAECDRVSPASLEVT
B2: Zinc finger protein Aiolos (Homo sapiens), Q9UKT9 (parent)
chain: MEDIQTNAELKSTQEQSVPAESAAVLNDYSLTKSHEMENVDSGEGPANEDEDIGDDSMKVKDEYSERDENVLKSEPMGNAEEPEIPYSYSREYNEYENIKLERHVVSFDSSRPTSGKMNCDVCGLSCISFNVLMVHKRSHTGERPFQCNQCGASFTQKGNLLRHIKLHTGEKPFKCHLCNYACQRRDALTGHLRTHSVEKPYKCEFCGRSYKQRSSLEEHKERCRTFLQSTDPGDTASAEARHIKAEMGSERALVLDRLASNVAKRKSSMPQKFIGEKRHCFDVNYNSSYMYEKESELIQTRMMDQAINNAISYLGAEALRPLVQTPPAPTSEMVPVISSMYPIALTRAEMSNGAPQELEKKSIHLPEKSVPSERGLSPNNSGHDSTDTDSNHEERQNHIYQQNHMVLSRARNGMPLLKEVPRSYELLKPPPICPRDSVKVINKEGEVMDVYRCDHCRVLFLDYVMFTIHMGCHGFRDPFECNMCGYRSHDRYEFSSHIARGEHRALLK
partner: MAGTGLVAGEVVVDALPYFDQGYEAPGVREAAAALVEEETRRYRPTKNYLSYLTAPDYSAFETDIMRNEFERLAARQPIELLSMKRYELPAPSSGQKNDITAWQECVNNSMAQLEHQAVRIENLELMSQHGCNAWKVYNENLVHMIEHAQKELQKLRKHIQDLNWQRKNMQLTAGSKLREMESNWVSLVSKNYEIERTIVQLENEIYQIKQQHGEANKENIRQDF
B3: Cysteine-rich secretory protein 2 (Homo sapiens), P16562 (parent)
chain: MALLPVLFLVTVLLPSLPAEGKDPAFTALLTTQLQVQREIVNKHNELRKAVSPPASNMLKMEWSREVTTNAQRWANKCTLQHSDPEDRKTSTRCGENLYMSSDPTSWSSAIQSWYDEILDFVYGVGPKSPNAVVGHYTQLVWYSTYQVGCGIAYCPNQDSLKYYYVCQYCPAGNNMNRKNTPYQQGTPCAGCPDDCDKGLCTNSCQYQDLLSNCDSLKNTAGCEHELLKEKCKATCLCENKIY
partner: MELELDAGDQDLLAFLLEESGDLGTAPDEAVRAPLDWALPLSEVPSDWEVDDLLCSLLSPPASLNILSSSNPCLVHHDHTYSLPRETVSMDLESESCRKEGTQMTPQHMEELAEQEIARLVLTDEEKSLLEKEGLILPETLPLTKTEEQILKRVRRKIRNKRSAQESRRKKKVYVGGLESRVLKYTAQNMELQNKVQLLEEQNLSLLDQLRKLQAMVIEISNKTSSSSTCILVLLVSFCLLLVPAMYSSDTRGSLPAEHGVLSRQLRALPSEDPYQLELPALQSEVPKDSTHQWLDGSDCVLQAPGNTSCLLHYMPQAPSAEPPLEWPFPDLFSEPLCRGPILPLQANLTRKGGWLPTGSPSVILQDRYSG
B4: Programmed cell death 6-interacting protein (Homo sapiens), Q8WUM4 (parent)
chain: MATFISVQLKKTSEVDLAKPLVKFIQQTYPSGGEEQAQYCRAAEELSKLRRAAVGRPLDKHEGALETLLRYYDQICSIEPKFPFSENQICLTFTWKDAFDKGSLFGGSVKLALASLGYEKSCVLFNCAALASQIAAEQNLDNDEGLKIAAKHYQFASGAFLHIKETVLSALSREPTVDISPDTVGTLSLIMLAQAQEVFFLKATRDKMKDAIIAKLANQAADYFGDAFKQCQYKDTLPKEVFPVLAAKHCIMQANAEYHQSILAKQQKKFGEEIARLQHAAELIKTVASRYDEYVNVKDFSDKINRALAAAKKDNDFIYHDRVPDLKDLDPIGKATLVKSTPVNVPISQKFTDLFEKMVPVSVQQSLAAYNQRKADLVNRSIAQMREATTLANGVLASLNLPAAIEDVSGDTVPQSILTKSRSVIEQGGIQTVDQLIKELPELLQRNREILDESLRLLDEEEATDNDLRAKFKERWQRTPSNELYKPLRAEGTNFRTVLDKAVQADGQVKECYQSHRDTIVLLCKPEPELNAAIPSANPAKTMQGSEVVNVLKSLLSNLDEVKKEREGLENDLKSVNFDMTSKFLTALAQDGVINEEALSVTELDRVYGGLTTKVQESLKKQEGLLKNIQVSHQEFSKMKQSNNEANLREEVLKNLATAYDNFVELVANLKEGTKFYNELTEILVRFQNKCSDIVFARKTERDELLKDLQQSIAREPSAPSIPTPAYQSSPAGGHAPTPPTPAPRTMPPTKPQPPARPPPPVLPANRAPSATAPSPVGAGTAAPAPSQTPGSAPPPQAQGPPYPTYPGYPGYCQMPMPMGYNPYAYGQYNMPYPPVYHQSPGQAPYPGPQQPSYPFPQPPQQSYYPQQ
partner: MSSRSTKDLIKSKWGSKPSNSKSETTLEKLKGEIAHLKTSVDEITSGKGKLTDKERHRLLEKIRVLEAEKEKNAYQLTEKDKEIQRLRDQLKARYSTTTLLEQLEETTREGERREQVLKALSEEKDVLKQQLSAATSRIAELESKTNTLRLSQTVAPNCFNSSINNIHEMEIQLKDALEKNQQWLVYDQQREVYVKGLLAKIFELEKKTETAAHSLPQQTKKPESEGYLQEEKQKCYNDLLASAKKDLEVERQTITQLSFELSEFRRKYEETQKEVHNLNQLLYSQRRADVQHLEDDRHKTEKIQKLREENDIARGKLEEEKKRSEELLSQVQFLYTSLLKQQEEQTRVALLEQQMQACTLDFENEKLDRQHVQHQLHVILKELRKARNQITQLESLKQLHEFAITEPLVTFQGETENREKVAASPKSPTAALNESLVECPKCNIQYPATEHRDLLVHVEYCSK
B5: Centrosomal protein of 55 kDa (Homo sapiens), Q53EZ4 (parent)
chain: B4 partner
partner: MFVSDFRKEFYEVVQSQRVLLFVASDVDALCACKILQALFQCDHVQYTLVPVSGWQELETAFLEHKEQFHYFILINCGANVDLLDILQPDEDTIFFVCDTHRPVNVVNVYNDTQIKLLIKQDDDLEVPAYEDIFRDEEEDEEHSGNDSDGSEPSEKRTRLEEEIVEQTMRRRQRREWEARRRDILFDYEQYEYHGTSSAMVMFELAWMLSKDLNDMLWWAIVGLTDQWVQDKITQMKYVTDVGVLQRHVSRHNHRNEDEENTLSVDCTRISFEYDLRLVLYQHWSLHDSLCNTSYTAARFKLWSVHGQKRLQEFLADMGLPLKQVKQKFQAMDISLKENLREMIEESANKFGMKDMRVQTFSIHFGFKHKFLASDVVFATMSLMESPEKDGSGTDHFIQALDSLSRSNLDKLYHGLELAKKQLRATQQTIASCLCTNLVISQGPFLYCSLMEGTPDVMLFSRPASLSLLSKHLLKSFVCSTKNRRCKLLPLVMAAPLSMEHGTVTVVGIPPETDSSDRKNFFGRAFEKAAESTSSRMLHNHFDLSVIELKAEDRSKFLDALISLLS

Variants of: B1
Conditions: with syt17_human SYT17, Q9BSW7

Variant | effect of a mutation on the interaction
R23H | with no effect

Variants of: B2
Conditions: with spf27_human BCAS2, O75934

Variant | effect of a mutation on the interaction
N119D | with no effect
A24V | with no effect

Variants of: B3
Conditions: with creb3_human CREB3, O43889

Variant | effect of a mutation on the interaction
C196R | with no effect

Variants of: B4
Conditions: with cep55_human CEP55, Q53EZ4

Variant | effect of a mutation on the interaction
G429S | with no effect
G778A | with no effect
N550S | with no effect
A309T | with no effect
S730L | with no effect

Variants of: B5
Conditions: with cdc45_human CDC45, O75419

Variant | effect of a mutation on the interaction
A244P | with no effect
R348K | with no effect
